± gives the standard deviation of the averaged measurements.
B1: library; a variant is named by its letters at N, in order (parent)
chain: GCUGUCACCGGUGCUUGGUACGUUAUAUUCAGCCGGUCUGAUGAGUCUNNNNNNAGACGAAACAGC

What was measured:
(6R,S)-folinic acid [1] = variants of: B1; experiment: normalized RNA/DNA level without ligand (relative to sTRSVctl = 100) (log10 (% of sTRSVctl)); HEK293T overexpressing SLC46A1; higher = less ribozyme self-cleavage, higher mRNA level; details: without (6R,S)-folinic acid; ligand present: no
In short: (§1)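 For each 6-well well, 4 µg of library plasmid encoding mCherry-linked ribozyme switches, or eGFP-linked ones in some ligand experiments, was transfected into HEK293T. Any ligand was added 1 h before transfection, and RNA was extracted with EDTA 72 h after it, then reverse-transcribed, amplified, barcoded and sequenced. RNA level was obtained by dividing RNA reads by DNA reads, normalizing to a spiked-in non-cleaving sequence or to the top sequences, then scaling and log-transforming. The top set was 25 sequences, scaling was ×100 with log10, and ≥100 DNA reads were required.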

(6R,S)-folinic acid [2] = variants of: B1; experiment: normalized RNA/DNA level with ligand (relative to sTRSVctl = 100) (log10 (% of sTRSVctl)); HEK293T overexpressing SLC46A1; ligand concentration (+) RNA-Seq: 6 mM; higher = less ribozyme self-cleavage, higher mRNA level; details: with (6R,S)-folinic acid; ligand present: yes
In short: as §1

Variant	normalized RNA/DNA level without ligand (log10) ((6R,S)-folinic acid [1])	normalized RNA/DNA level with ligand (log10) ((6R,S)-folinic acid [2])
AGUUAG	1.908 ± 0.017	2 ± 0.038
AGUUAC	2.007 ± 0.0061	1.992 ± 0.013
AGUUAU	1.979 ± 0.0072	2.02 ± 0.018
AGUUAA	1.9569 ± 0.00052	1.99 ± 0.024
CGUGAU	1.96 ± 0.0081	1.993 ± 0.0086
CGUGAG	1.97 ± 0.029	1.99 ± 0.028
GGUUCU	2.0626 ± 0.0019	2.05 ± 0.049
GGUUCA	1.99 ± 0.02	2 ± 0.036
GGUUCG	2.0485 ± 5.4e-05	2.06 ± 0.048
GGUUCC	2.028 ± 0.018	2.03 ± 0.037
CUAACC	2.007 ± 0.0068	1.98 ± 0.073
CUAACU	2.007 ± 0.0098	2 ± 0.035
CUAACG	2.02 ± 0.018	1.99 ± 0.053
CUAACA	2.026 ± 0.012	2.03 ± 0.043
UGUGUC	2.041 ± 0.019	2.004 ± 0.012
UGUGUU	1.907 ± 0.019	1.966 ± 0.019
AUACGA	1.9851 ± 0.0003	2.01 ± 0.043
AUACGU	2.005 ± 0.0023	2.026 ± 0.01
AUACGC	2.015 ± 0.018	1.998 ± 0.013
CGUUUC	2.06 ± 0.047	2.06 ± 0.06
CGUUUG	2 ± 0.029	1.986 ± 0.0034
CGUUUU	2.032 ± 0.0078	2.037 ± 0.0095
CGUUUA	1.99 ± 0.03	2.01 ± 0.034

Variant	normalized RNA/DNA level without ligand (log10) ((6R,S)-folinic acid [1])	normalized RNA/DNA level with ligand (log10) ((6R,S)-folinic acid [2])
GUACGC	2.01 ± 0.029	2.03 ± 0.026
GUACGU	1.986 ± 0.006	2.03 ± 0.049
AGUGCC	2.072 ± 0.014	2.07 ± 0.035
AGUGCU	2.01 ± 0.0069	2.03 ± 0.027
AGUGCA	1.97 ± 0.025	1.996 ± 0.016
AGUGCG	1.849 ± 0.017	2.01 ± 0.062
AUAAUU	1.99 ± 0.025	2.03 ± 0.038
AUAAUG	1.91 ± 0.021	2 ± 0.043
AUAAUC	2.024 ± 0.015	2 ± 0.032
UUACCA	2.03 ± 0.0034	2.028 ± 0.016
UUACCU	2.061 ± 0.0025	2.05 ± 0.04
UUACCG	1.969 ± 0.0046	2 ± 0.04
GGUUUA	2.009 ± 0.018	1.98 ± 0.03
GGUUUC	2.021 ± 0.011	1.9966 ± 0.0012
GGUUUU	2 ± 0.021	1.99 ± 0.033
AGUCAG	1.975 ± 0.016	2.02 ± 0.042
AGUCAU	1.998 ± 0.0079	2.0062 ± 1.5e-05
AGUCAC	2.02 ± 0.024	2.02 ± 0.026
AGUAGG	1.897 ± 0.0057	2.02 ± 0.021
AGUAGU	1.943 ± 0.0095	2.012 ± 0.019
AGUAGC	1.986 ± 8.8e-05	2 ± 0.039
UGUGCA	1.9059 ± 0.0006	1.99 ± 0.04
UGUGCC	2.023 ± 0.019	2.06 ± 0.029

Variant	normalized RNA/DNA level without ligand (log10) ((6R,S)-folinic acid [1])	normalized RNA/DNA level with ligand (log10) ((6R,S)-folinic acid [2])
UUAAUU	2.011 ± 0.0048	2.01 ± 0.042
UUAAUC	2.0392 ± 0.0017	2.03 ± 0.034
CGUCUG	2.008 ± 0.01	2.01 ± 0.018
CGUCUU	2.021 ± 0.0084	2 ± 0.039
GGUGCG	2.0178 ± 0.0012	2.05 ± 0.035
GGUGCC	2.029 ± 0.0081	2.03 ± 0.039
AGUUUG	1.958 ± 0.0094	2.023 ± 0.017
AGUUUC	2.02 ± 0.024	2 ± 0.025
AGUUUA	1.9996 ± 0.00042	2.03 ± 0.037
AGUUUU	2.01 ± 0.027	1.98 ± 0.02
UGUUUC	2.063 ± 0.0072	2.04 ± 0.027
UGUUUA	1.978 ± 0.0041	2.055 ± 0.0056
UGUCCG	1.86 ± 0.022	1.99 ± 0.033
UGUCCC	2.06 ± 0.024	2.033 ± 0.017
UGUCCU	2.03 ± 0.034	2.07 ± 0.026
UGUUCA	1.991 ± 0.012	2.0188 ± 0.0011
UGUUCU	2.031 ± 0.0043	2.08 ± 0.035
UGUUCG	1.761 ± 0.017	1.96 ± 0.031
AUAACG	1.9455 ± 0.0011	2.02 ± 0.033
GGUCAG	2.039 ± 0.018	2.04 ± 0.035
GGUCAC	1.99 ± 0.031	2 ± 0.039
GGUCAA	1.99 ± 0.028	2 ± 0.024
GGUCAU	2.01 ± 0.025	2.01 ± 0.044

Variant	normalized RNA/DNA level without ligand (log10) ((6R,S)-folinic acid [1])	normalized RNA/DNA level with ligand (log10) ((6R,S)-folinic acid [2])
AUAAGA	1.971 ± 0.0094	2.01 ± 0.034
CGUCCA	2.0366 ± 0.0014	2.02 ± 0.035
CGUCCG	2.04 ± 0.026	2.037 ± 0.015
CGUCCU	2.11 ± 0.011	2.06 ± 0.031
CGUCCC	2.003 ± 0.0083	1.95 ± 0.037
AGUAUC	2.059 ± 0.0016	2.03 ± 0.0073
AGUAUA	1.9846 ± 0.0011	2.02 ± 0.0084
AGUAUU	2 ± 0.011	2.032 ± 0.018
CGUGGC	2.02 ± 0.027	2 ± 0.073
CGUGGG	1.8506 ± 0.0006	1.98 ± 0.036
CGUGGU	1.998 ± 0.0064	1.99 ± 0.029
GUACAA	1.966 ± 0.013	1.986 ± 0.011
GUACAU	1.965 ± 0.005	2.01 ± 0.034
GGUCGC	1.952 ± 0.012	2 ± 0.032
GGUCGG	2.053 ± 0.02	2.07 ± 0.062
GGUCGA	2.0344 ± 0.00085	2.01 ± 0.026
GGUCGU	2.034 ± 0.015	2.029 ± 0.0084
GUAAGA	2.005 ± 0.0094	1.99 ± 0.02
GUAAGU	1.939 ± 0.0089	2.02 ± 0.06
GGUAUC	2.011 ± 0.008	2.0104 ± 0.001
GGUAUU	2.002 ± 0.014	1.98 ± 0.032
CUAAGA	2.017 ± 0.0036	2 ± 0.04
CUAAGC	2.02 ± 0.026	2.024 ± 0.018

Variant	normalized RNA/DNA level without ligand (log10) ((6R,S)-folinic acid [1])	normalized RNA/DNA level with ligand (log10) ((6R,S)-folinic acid [2])
CUAAGG	1.96 ± 0.0065	2.002 ± 0.014
AGUGGU	1.95 ± 0.013	2.02 ± 0.049
AGUGGC	2.042 ± 0.01	2.04 ± 0.06
AGUGGG	1.921 ± 0.019	2.04 ± 0.035
AGUUCU	2.02 ± 0.025	2.014 ± 0.011
AGUUCC	2.06 ± 0.047	2.04 ± 0.059
AGUUCG	1.953 ± 0.015	2 ± 0.025
UGUCUC	2.06 ± 0.022	2.052 ± 0.02
UGUCUA	1.991 ± 0.0035	2.02 ± 0.043
UGUCUU	1.978 ± 0.016	2.03 ± 0.022
GGUGAG	1.908 ± 0.012	1.99 ± 0.01
GGUGAA	1.989 ± 0.0081	2.011 ± 0.02
CGUCGA	2.012 ± 0.0023	2.019 ± 0.019
CGUCGG	2.01 ± 0.026	2.08 ± 0.049
CGUCGU	2.04 ± 0.032	2 ± 0.03
CGUCGC	2.06 ± 0.037	2 ± 0.092
CUACGG	2.102 ± 0.0025	2.092 ± 0.0045
CUACGA	2.045 ± 0.012	2.05 ± 0.028
CUACGU	2 ± 0.01	1.99 ± 0.035
CUACGC	2.025 ± 0.013	2.028 ± 0.0021
AUACCU	2.0169 ± 0.00086	2.025 ± 0.011
AUACCG	2.013 ± 0.013	2.04 ± 0.042
AUACCC	2.023 ± 0.003	2.01 ± 0.023

From the supplement of paper PMC6757056
